According to PMC8161381:

What was measured:
[1] = biological target: cathepsin L-like activity of I. ricinus gut tissue extract (Ixodes ricinus (endogenous in gut tissue))
[2] = biological target: Ixodes ricinus cathepsin L1 (Ixodes ricinus)
[3] = biological target: T1, human cathepsin K (human) (UniProt P43235)
T1 sequence: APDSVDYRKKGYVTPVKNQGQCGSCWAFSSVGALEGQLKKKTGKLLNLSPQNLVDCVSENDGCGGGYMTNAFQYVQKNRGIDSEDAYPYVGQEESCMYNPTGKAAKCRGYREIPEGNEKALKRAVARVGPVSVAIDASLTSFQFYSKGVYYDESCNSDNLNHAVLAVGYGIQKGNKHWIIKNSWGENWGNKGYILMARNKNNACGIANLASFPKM

[4] = biological target: human cathepsin L (human)
Sequence of human cathepsin L (human) (P07711 18-333): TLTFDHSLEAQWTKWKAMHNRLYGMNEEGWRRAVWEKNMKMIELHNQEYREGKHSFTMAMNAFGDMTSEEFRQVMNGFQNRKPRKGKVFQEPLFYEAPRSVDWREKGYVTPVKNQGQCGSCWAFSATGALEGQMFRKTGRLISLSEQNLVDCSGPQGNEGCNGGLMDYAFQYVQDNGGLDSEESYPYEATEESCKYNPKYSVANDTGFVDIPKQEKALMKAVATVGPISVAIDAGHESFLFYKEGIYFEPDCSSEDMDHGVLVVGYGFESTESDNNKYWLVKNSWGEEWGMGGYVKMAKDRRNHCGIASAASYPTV

[5] = biological target: human cathepsin S (human) (UniProt P25774)
Sequence of human cathepsin S (human) (P25774 115-331): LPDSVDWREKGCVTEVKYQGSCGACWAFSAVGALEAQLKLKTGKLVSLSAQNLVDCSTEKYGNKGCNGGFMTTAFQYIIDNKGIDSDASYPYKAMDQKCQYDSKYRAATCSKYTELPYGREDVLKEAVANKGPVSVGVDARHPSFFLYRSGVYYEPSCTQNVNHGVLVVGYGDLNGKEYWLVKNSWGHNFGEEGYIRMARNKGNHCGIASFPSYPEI

[6] = biological target: Ixodes ricinus cathepsin C, native in gut tissue extract (Ixodes ricinus (endogenous in gut tissue))
[7] = biological target: Ixodes ricinus cathepsin B, native in gut tissue extract (Ixodes ricinus (endogenous in gut tissue))
[8] = biological target: human cathepsin B (human)
[9] = biological target: T2, human cathepsin H (human)
T2 sequence (P09668 116-335, looked up): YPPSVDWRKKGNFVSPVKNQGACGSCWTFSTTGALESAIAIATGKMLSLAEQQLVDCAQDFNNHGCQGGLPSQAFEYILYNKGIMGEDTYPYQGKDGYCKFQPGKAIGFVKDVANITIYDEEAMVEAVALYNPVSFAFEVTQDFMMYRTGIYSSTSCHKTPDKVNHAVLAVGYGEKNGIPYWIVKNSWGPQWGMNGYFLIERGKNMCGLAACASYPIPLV

[10] = biological target: cathepsins L and B activity of I. ricinus gut tissue extract (Ixodes ricinus (endogenous in gut tissue))
[11] = biological target: human cathepsin C (human)
Sequence of human cathepsin C (human) (P53634 25-463): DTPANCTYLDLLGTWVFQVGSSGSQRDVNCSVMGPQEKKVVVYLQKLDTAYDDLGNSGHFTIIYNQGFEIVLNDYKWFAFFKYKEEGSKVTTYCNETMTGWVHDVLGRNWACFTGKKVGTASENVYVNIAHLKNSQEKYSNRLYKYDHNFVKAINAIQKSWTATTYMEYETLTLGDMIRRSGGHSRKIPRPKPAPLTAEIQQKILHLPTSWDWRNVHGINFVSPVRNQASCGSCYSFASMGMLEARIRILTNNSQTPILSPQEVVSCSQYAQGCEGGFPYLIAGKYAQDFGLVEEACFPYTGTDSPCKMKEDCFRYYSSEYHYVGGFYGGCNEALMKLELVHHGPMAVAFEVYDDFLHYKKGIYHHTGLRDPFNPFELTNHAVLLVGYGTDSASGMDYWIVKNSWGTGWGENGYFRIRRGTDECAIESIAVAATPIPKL

[12] = biological target: Ixodes ricinus cathepsin L3 (Ixodes ricinus)

B1: mialostatin (natural protein)
chain: GSASRSKRALVGGWKTQDPTNPKFENLAHYAVSTQVEGREYYDTVLELLEVQTQIVAGVNYKLKFTTTQSTCKIETGVEYSKELCQPKTNKVEAVCTSIIYTVPWQNIKRVLSYHCDAPNDV
B1 was tested, and the IC50 of inhibition of cathepsin L activity in gut tissue extract (kinetic assay, Z-Phe-Arg-AMC, pH 4.5, with CA-074, 37 °C) [1] was 0.18 nM, the IC50 of inhibition of protease activity (kinetic assay, 0.1 nM IrCL1, Z-Phe-Arg-AMC, pH 4.5, 37 °C) [2] was 71 pM and the IC50 of inhibition of protease activity (kinetic assay, 5 nM cathepsin K, Z-Leu-Arg-AMC, pH 5.5, 37 °C) [3] was 9.7 nM. For the same binder, the IC50 of inhibition of protease activity (kinetic assay, 33 pM cathepsin L, Z-Leu-Arg-AMC, pH 5.5, 37 °C) [4] was 0.38 nM, the IC50 of inhibition of protease activity (kinetic assay, 350 pM cathepsin S, Z-Val-Val-Arg-AMC, pH 5.5, 37 °C) [5] was 2.2 nM and the IC50 of inhibition of cathepsin C activity in gut tissue extract (kinetic assay, Gly-Arg-AMC, pH 5.5, with E-64, 37 °C) [6] was 91.7 nM. It also gave an IC50 of inhibition of cathepsin B activity in gut tissue extract (kinetic assay, Z-Arg-Arg-AMC, pH 6.5, with Z-Phe-Phe-DMK, 37 °C) [7] of 12.1 nM, an IC50 of inhibition of protease activity (kinetic assay, 35 pM cathepsin B, Z-Leu-Arg-AMC, pH 5.5, 37 °C) [8] of 9 nM and an IC50 of inhibition of protease activity (kinetic assay, 20 nM cathepsin H, Z-Leu-Arg-AMC, pH 6.8, 37 °C) [9] of 24 nM. For the same binder, the IC50 of inhibition of cathepsins L and B activity in gut tissue extract (kinetic assay, Z-Phe-Arg-AMC, pH 5.0, 37 °C) [10] was 3.1 nM, the IC50 of inhibition of protease activity (kinetic assay, 0.5 nM cathepsin C, Gly-Arg-AMC, pH 5.5, 37 °C) [11] was 2.1 nM and the IC50 of inhibition of protease activity (kinetic assay, 20 pM IrCL3, Z-Phe-Arg-AMC, pH 4.5, 37 °C) [12] was 0.39 nM.
